Laboratory results: the supplement of paper PMC9170038

Tested on: MS2 coat protein
Assay: apparent KD of MS2 coat protein; designed switch direction (-1 OFF switch, 1 ON switch): -1; higher = weaker reporter binding
Method in brief: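 Transcription of designed RNA switches on Illumina chips was done by stalled E. coli RNA polymerase. SNAP-549-labelled MS2 coat protein was then titrated in doubling steps from 0.7 or 1.5 nM to 3 µM, with steps of 0.8–1.5 h at the lowest and 10–20 min at the highest concentration. The per-design median over clusters of curve-fitted normalised fluorescence is reported as apparent KD.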

[1] = Eterna round: R95, input ligand: microRNA oligo, concentration not stated
[2] = Eterna round: R95, input ligand: FMN 200 uM
[3] = Eterna round: R95, input ligand: none
[4] = input ligand: microRNA oligo, concentration not stated

Sequence: CUUUUGUGAGGAUAUUUGUAGUAAAUAAAUAAAAUUACUACUGAGAAGGCACAUGAGGAUCACCCAUGUUCCUC [salish99_ex4_r3_042] (puzzle: Exclusion 4)
- apparent KD of MS2 coat protein [1]: 0.0277 µM

Sequence: GAAAACGAAGAGGAUAUAUGAUAUCAAAGCUUCAUAGAAGGCUUCACAUGAGGAUCACCCAUGUGAUCUUCAAU [Mat - Exclusion 6 - JL Mod - D23] (Eterna round: R97, puzzle: Exclusion 6)
- apparent KD of MS2 coat protein (input ligand: FMN 200 uM): 0.244 µM
- apparent KD of MS2 coat protein (input ligand: none): 0.0416 µM

Sequence: GAAAACGCAGAGGAUAUUUCAGAUCAAAGCUGCAAAGAAGGCUGCACAUGAGGAUCACCCAUGUGGUCUCAAAA [Mod of Quesina 3 - Jieux - Exclusion 6] (Eterna round: R97, puzzle: Exclusion 6)
- apparent KD of MS2 coat protein (input ligand: FMN 200 uM): 0.422 µM
- apparent KD of MS2 coat protein (input ligand: none): 0.0336 µM

Sequence: GAAAACGCUGAGGAUAUUUCUGAUCAAAGCAGCAAAGAAGGCAGCACAUGAGGAUCACCCAUGUGGUCUUCAAG [Mat - Exclusion 6 - JL Mod - D12] (Eterna round: R97, puzzle: Exclusion 6)
- apparent KD of MS2 coat protein (input ligand: FMN 200 uM): 0.243 µM
- apparent KD of MS2 coat protein (input ligand: none): 0.0447 µM

Sequence: GAAAACGUAGGAUAUUAAUACUCAGACAUGAGGAUCACCCAUGUUUGGUGGGUUUAAGAAUGAGAAGGGCGAUGAA [EX5 #6] (Eterna round: R97, puzzle: Exclusion 5)
- apparent KD of MS2 coat protein (input ligand: FMN 200 uM): 0.049 µM
- apparent KD of MS2 coat protein (input ligand: none): 0.049 µM

Sequence: GAAAACGUAGGAUAUUAAUACUUAUACAUGAGGAUCACCCAUGUUUGGUGGGUAAAAGAAUGAGAAGGGCGAUGAA [EX5 #9] (Eterna round: R97, puzzle: Exclusion 5)
- apparent KD of MS2 coat protein (input ligand: FMN 200 uM): 0.392 µM
- apparent KD of MS2 coat protein (input ligand: none): 0.425 µM

Sequence: GAAAAGGUAGAGGAUAUUUCAGAUCAAAGCUGCAAAGAAGGCUGCACAUGAGGAUCACCCAUGUGGUCAAUAAA [Mod of Quesina 12 - Jieux - Exclusion 6] (Eterna round: R97, puzzle: Exclusion 6)
- apparent KD of MS2 coat protein (input ligand: FMN 200 uM): 0.0597 µM
- apparent KD of MS2 coat protein (input ligand: none): 0.0209 µM

Sequence: GAAAAGGUAGGAUAUACGAAAAGAAAGGGUAGAAGAAGAACACAUGAGGAUCACCCAUGUAGAAGGACCAAAAG [Mat - Exclusion 2 - Mod of my Tesla design - D1] (puzzle: Exclusion 2)
- apparent KD of MS2 coat protein [2]: 0.0731 µM
- apparent KD of MS2 coat protein [1]: 0.0185 µM
- apparent KD of MS2 coat protein [3]: 0.0165 µM

Sequence: GAAAAGGUAGGAUAUCGAGACCAUAACAUGAGGAUCACCCAUGUGAUACCUACAGUGGUCCGAGAAGGACCAUAUA [Iserdianqu] (puzzle: Exclusion 5)
- apparent KD of MS2 coat protein [2]: 0.0621 µM
- apparent KD of MS2 coat protein [1]: 0.0204 µM
- apparent KD of MS2 coat protein [3]: 0.0193 µM

Sequence: GAAAAGUAAGGAUAUGUCCACAGUGAGGAAACUCACUGUGGACAGAAGGUACAUGAGGAUCACCCAUGUUCCUC [ExDelusion 4 - Jieux - Exclusion 4] (Eterna round: R97, puzzle: Exclusion 4)
- apparent KD of MS2 coat protein (input ligand: FMN 200 uM): 0.577 µM
- apparent KD of MS2 coat protein (input ligand: none): 0.0442 µM

Sequence: GAACUAAAGCAAAGCUUUAGUCGUACAUGAGGAUCACCCAUGUAGGAUAUGGUAGGCAAAGCAUACCAGAAGGACAGAGUGAUC [Mat - Exclusion NG 3 - Mod of JL - D63] (Eterna round: R96, puzzle: Exclusion NG 3)
- apparent KD of MS2 coat protein (input ligand: FMN 200 uM): 0.211 µM
- apparent KD of MS2 coat protein [4]: 0.134 µM
- apparent KD of MS2 coat protein (input ligand: none): 0.371 µM

Sequence: GAACUGAGGCAAAGCUUUAGUCGUACAUGAGGAUCACCCAUGUAGGAUAUGGUAGGCAAAGCAUACCAGAAGGACAGAGUGAUC [Mat - Exclusion NG 3 - Mod of JL - D61] (Eterna round: R96, puzzle: Exclusion NG 3)
- apparent KD of MS2 coat protein (input ligand: FMN 200 uM): 0.877 µM
- apparent KD of MS2 coat protein [4]: 0.313 µM
- apparent KD of MS2 coat protein (input ligand: none): 0.476 µM

Sequence: GAAGAAGAGAGAAAAGAAAACAUGAGGAUCACCCAUGUGAGAAGAUGAGGGUGUAGCAGGCUUUAUGCUCGUCUUAU (puzzle: Sensor v3, turn-off variant 1)
- apparent KD of MS2 coat protein [2]: 0.0275 µM
- apparent KD of MS2 coat protein [1]: 0.0785 µM
- apparent KD of MS2 coat protein [3]: 0.0279 µM

Sequence: GAAGAGACAGGAUAUACAUGAGGAUCACCCAUGUGAGGAGGAAGAGAGAGGAGAAGGAGUAGAAGGGUCAGAGG [JR_Exclu3_Sub028] (puzzle: Exclusion 3)
- apparent KD of MS2 coat protein [2]: 0.0321 µM
- apparent KD of MS2 coat protein [1]: 0.0412 µM
- apparent KD of MS2 coat protein [3]: 0.0465 µM

Sequence: GAAGUUAGAGGAUAUACAUGAGGAUCACCCAUGUAUGAAGUUAACUUUGUAUAUAAAUGUAGAAGGCUAACUUC [-21.1, -19.6 kcal, 36% A] (Eterna round: R97, puzzle: Exclusion 3)
- apparent KD of MS2 coat protein (input ligand: FMN 200 uM): 0.0416 µM
- apparent KD of MS2 coat protein (input ligand: none): 0.0256 µM

Sequence: GAAUACAAGCAAAGAUCCUACAUGAGGAUCACCCAUGUGCUCGUCUUGUAAAGUACUAUCACGAAAGUGAUAGUACA [Mat - Sensor v3 - turn-off var 1 - Eli Mod - D78] (puzzle: Sensor v3, turn-off variant 1)
- apparent KD of MS2 coat protein [2]: 0.0767 µM
- apparent KD of MS2 coat protein [1]: 0.0169 µM
- apparent KD of MS2 coat protein [3]: 0.0601 µM

Sequence: GACAUGUGAGGAUAUUGCAUAUAGUUAUAAGUUCAGGGCGGCAAGAAGGCACAUGAGGAUCACCCAUGUACCUU [Eternabot (L2) Solution 81] (Eterna round: R97, puzzle: Exclusion 4)
- apparent KD of MS2 coat protein (input ligand: FMN 200 uM): 0.0187 µM
- apparent KD of MS2 coat protein (input ligand: none): 0.0153 µM

Sequence: GACGCUGACCGAGGAUAUACAAUAAAACAACAAACACCUCGUGUCAGAACAUGAGGAUCACCCAUGUAGAAGGCGGCAGGUCUA [Teateus] (Eterna round: R96, puzzle: Exclusion NG 2)
- apparent KD of MS2 coat protein [4]: 0.0316 µM

Sequence: GACUAGAGAGGAUAUAUUUACAGUGUACCUCGGAUGAUCGCACUUGAGGAUCACCCAAGUAGAAGGCUCGAGGG [EX2 #29] (Eterna round: R97, puzzle: Exclusion 2)
- apparent KD of MS2 coat protein (input ligand: FMN 200 uM): 0.011 µM
- apparent KD of MS2 coat protein (input ligand: none): 0.0152 µM

Sequence: GACUGCCGAGGAUAUACAUGAGGAUCACCCAUGUGCUUCAGUAUCGAAAGAUGCAUGGGUAGAAGGCGGUAGUC [LRO-Excl3-10] (Eterna round: R96, puzzle: Exclusion 3)
- apparent KD of MS2 coat protein (input ligand: FMN 200 uM): 0.912 µM
- apparent KD of MS2 coat protein [4]: 0.627 µM
- apparent KD of MS2 coat protein (input ligand: none): 1.41 µM

Sequence: GACUGCCGAGGAUAUACAUGAGGAUCACCCAUGUGCUUCAGUAUCGAAAGAUGCAUGGGUAGAAGGCGGUAGUC [LRO-Excl3-10] (puzzle: Exclusion 3)
- apparent KD of MS2 coat protein [1]: 0.172 µM

Sequence: GACUGCUGAGGAUAUACAUGAGGAUCACCCAUGUGCUUCAGCUACGAGAGUAGCAUUGGUAGAAGGUAGUAGUC [LRO-Excl3-04] (puzzle: Exclusion 3)
- apparent KD of MS2 coat protein [1]: 0.0111 µM

Sequence: GACUGUCUAGGAUAUGCGACGUUUUACAUGAGGAUCACCCAUGUUGUCUGCGUGUGUGUGGCAGAAGGAGACAAAC [Eses] (puzzle: Exclusion 5)
- apparent KD of MS2 coat protein [1]: 0.0133 µM

Sequence: GACUUCUCUGAGGAUAUUGCAUCAUACGAUUUAUAAGAAGGCAGAACAUGAGGAUCACCCAUGUGGGUUUUUAG [Bingo-Bango-30] (Eterna round: R97, puzzle: Exclusion 6)
- apparent KD of MS2 coat protein (input ligand: FMN 200 uM): 0.102 µM
- apparent KD of MS2 coat protein (input ligand: none): 0.055 µM

Sequence: GAGAAACAUGAGGAUCACCCAUGUGAGGAUAUGAAAAAGAAAAGAAAAGAAAGAAGAAUCAGAAGGCACAAAGG [salish99-ex1_r3_078] (puzzle: Exclusion 1)
- apparent KD of MS2 coat protein [2]: 0.0453 µM
- apparent KD of MS2 coat protein [1]: 0.0308 µM
- apparent KD of MS2 coat protein [3]: 0.0391 µM

Sequence: GAGAACGUAGGAUAUACAUGAGGAUCACCCAUGUGAGGAAGGAGUAGGAAGAGUGGAAGUAGAAGGACGGAGAG [JR_Exclu3_Sub072] (puzzle: Exclusion 3)
- apparent KD of MS2 coat protein [2]: 0.0474 µM
- apparent KD of MS2 coat protein [1]: 0.0219 µM
- apparent KD of MS2 coat protein [3]: 0.0349 µM
